Legend:
[1] = biological target: T1, GST-tagged hNav1.2-loopA3 (human, UniProt Q99250 273-362); assay: binding ELISA on coated GST-tagged hNav1.2 loop A3 peptide, OD620
T1 construct: bought (Abnova); monomeric; also called hNav1.2 derived monomeric GST-tagged loopA3 peptide; Abnova H00006326-Q01; not shown: GST tag
Description: (§1) The therapeutic potency of an anti-hNav1.7 antibody will highly depend on the lack of binding to other Nay family members. Of particular interest is hNav1.5, which is expressed on cardiac muscle cells. As such, cross-reactive binding of hNav1.7 antibodies to hNav1.5 could lead to heart failure. To assay the specificity of the mAbs derived from DNA immunization for hNav1.7, the corresponding loopA3 and loopB1-C1-D1 sequences of hNav1.5 were cloned as llamaFc chimera and cross-reactivity was determined using a binding ELISA (FIG. 8). All clones, except clone 9A6 and 9H4, show no cross-reactivity to hNav1.5. In addition, cross reactivity for hNav1.2 was tested for the loopA3-binding clones 8A7 and 8B6 using hNav1.2 and hNav1.7 derived monomeric, GST-tagged loopA3 peptides (Abnova, H00006326-Q01 (hNav1.2) and H00006335-Q01 (hNav1.7)). Again, no cross-reactive binding was observed.

hNav1.5-loopA3-llFc = biological target: T2, hNav1.5-loopA3-llFc (human); assay: binding ELISA on coated hNav1.5 loop A3-llama Fc, OD620
T2 construct: also called Nav1.5 extracellular loop A3 llamaFc chimera
T2 chain: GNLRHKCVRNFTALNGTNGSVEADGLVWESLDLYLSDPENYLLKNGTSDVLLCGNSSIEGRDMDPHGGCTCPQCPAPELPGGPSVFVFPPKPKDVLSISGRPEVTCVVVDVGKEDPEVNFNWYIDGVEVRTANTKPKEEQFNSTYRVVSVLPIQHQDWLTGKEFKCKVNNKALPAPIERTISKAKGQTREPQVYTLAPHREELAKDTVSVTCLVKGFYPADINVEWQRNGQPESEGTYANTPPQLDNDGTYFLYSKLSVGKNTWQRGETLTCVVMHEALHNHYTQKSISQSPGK
Description: as §1

[2] = biological target: human Nav1.7 (full length) (human) (UniProt Q15858); assay: cell-based or functional assay
[3] = biological target: T3, hNav1.7-loopA3-llama Fc fusion (human); assay: ELISA, coated loopA3-llama Fc 10 ng/well, mAb titrated
T3 construct: also called hNav1.7-loopA3-llFc; loopA3-llamaFc chimera
T3 chain: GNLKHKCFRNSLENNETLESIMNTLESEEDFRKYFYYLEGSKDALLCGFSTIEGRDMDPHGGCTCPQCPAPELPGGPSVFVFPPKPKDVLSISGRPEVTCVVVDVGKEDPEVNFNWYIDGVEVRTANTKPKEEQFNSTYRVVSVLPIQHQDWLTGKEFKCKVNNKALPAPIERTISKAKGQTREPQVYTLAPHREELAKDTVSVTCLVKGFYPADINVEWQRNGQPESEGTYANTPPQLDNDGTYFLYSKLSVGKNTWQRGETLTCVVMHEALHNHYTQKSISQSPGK
Experimental: In a next experiment, the binding affinity of the loop-specific mAbs was determined and compared to reference mAbs as described in US2011/0135662 (for loop A3: UCB_932, for loopB1-C1-D1: UCB_983, for loopC3: UCB_1066; US2011/0135662). Affinities were determined using an ELISA with a loop-coating of 10 ng/well (loopA3-llama Fc), 20 ng/well (loop-B1-C1-D1-llama Fc) or 50 ng/well (loopC3-llama Fc). The remainder of the experimental setup was identical to abovementioned binding ELISAs. Most of the mAbs show pM affinity for the respective hNav1.7 extracellular loop they are binding. […] The EC₅₀ for the reference mAbs could not be determined (nd) from the ELISA data available because the binding was too weak.

[4] = biological target: T3, hNav1.7-loopA3-llama Fc fusion; assay: binding ELISA of mAb 8A7 on coated loop A3-llama Fc chimeras, OD450
mouse A3-llamaFc = biological target: T4, mouse A3-llamaFc (mouse, UniProt Q62205 269-319); assay: as above
T4 construct: also called wild-type mouse A3 loop; not shown: linker and llama Fc of the A3-llamaFc construct
T4 sequence: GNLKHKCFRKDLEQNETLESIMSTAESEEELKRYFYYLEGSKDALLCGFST

Mouse A3 mut1 = biological target: T5, Mouse A3 mut1 (mouse-human chimera, UniProt Q62205 269-319); assay: as above
T5 construct: also called mouse A3 mut1 loop; not shown: linker and llama Fc of the A3-llamaFc construct

T1 sequence (Q99250 273-362 limits assumed): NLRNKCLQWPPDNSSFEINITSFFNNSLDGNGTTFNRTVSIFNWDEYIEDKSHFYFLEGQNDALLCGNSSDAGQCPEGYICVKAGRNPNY

B1: 8A7 (antibody, human IgG1, V domains shown)
VH: EVQVQESGPGLVTPSQTLSLTCTVSGGSIKNNYYYWNWIRQPPGKGLEWMGAIAYSGSTYYSPSLQSRTSISRDTSKNQFTLQLSSVTPEDTAVYYCARVPSVFGLPYGGMNYWGKGTLVTVSS
VL: SYELTQSPSVTVALRQTAKITCGGSRIGSKSVQWYQQKPGQVPVLVIYADNRRPSRIPERFSGSNSGNTATLIISGAQAEDEADYYCQVWDSSAAVFGGGTHLTVLG
notes: also called mAb 8A7
**Q.** Which results are given for B1?
**A.** binding result [1]: no binding (tested: about 130 nM); binding result (hNav1.5-loopA3-llFc): no binding (tested: about 66 ng/ml (axis as labelled)); % inhibition of inward current following P02 voltage protocol, 10 µg/ml [2]: 4%; % inhibition of inward current following P02 voltage protocol, 25 µg/ml [2]: 33.3%; % inhibition of inward current following P02 voltage protocol, 100 µg/ml [2]: 47.6%; EC50 [3]: 0.23 nM; EC50 (read off the curve) [4]: ~0.08 nM; binding result (mouse A3-llamaFc): no binding (tested: about 33 nM); binding result (Mouse A3 mut1): no binding (tested: about 33 nM)

Reference: patent US20160207996A1 (ARGEN X N V, published 2016)
